Reference: US20060105407

Columns and labels:
[1] = target: leptin-dimer Ab1 (UniProt P41159)
[2] = target: leptin-monomer Ab1 (UniProt P41159)
[3] = target: T1, malic enzyme-monomer kemptide (UniProt P26616)
T1 sequence: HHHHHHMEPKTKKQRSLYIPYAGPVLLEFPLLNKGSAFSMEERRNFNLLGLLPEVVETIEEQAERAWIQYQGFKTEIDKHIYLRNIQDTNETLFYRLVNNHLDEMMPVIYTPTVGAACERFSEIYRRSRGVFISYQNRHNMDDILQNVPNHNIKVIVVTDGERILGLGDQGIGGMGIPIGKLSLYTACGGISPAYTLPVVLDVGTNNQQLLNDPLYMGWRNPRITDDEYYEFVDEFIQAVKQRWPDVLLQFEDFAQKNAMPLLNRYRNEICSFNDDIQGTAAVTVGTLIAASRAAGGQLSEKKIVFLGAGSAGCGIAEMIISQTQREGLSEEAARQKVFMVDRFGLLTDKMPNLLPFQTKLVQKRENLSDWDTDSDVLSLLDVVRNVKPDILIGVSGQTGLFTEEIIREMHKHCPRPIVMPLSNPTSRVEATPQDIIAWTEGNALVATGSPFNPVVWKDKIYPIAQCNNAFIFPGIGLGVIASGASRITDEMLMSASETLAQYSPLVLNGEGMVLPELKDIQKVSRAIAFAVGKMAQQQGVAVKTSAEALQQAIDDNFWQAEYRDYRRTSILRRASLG

[4] = target: leptin-dimer kemptide (UniProt P41159)
leptin-dimer kemptide, sequence (P41159 other isoform, or with tags, fused parts or gaps): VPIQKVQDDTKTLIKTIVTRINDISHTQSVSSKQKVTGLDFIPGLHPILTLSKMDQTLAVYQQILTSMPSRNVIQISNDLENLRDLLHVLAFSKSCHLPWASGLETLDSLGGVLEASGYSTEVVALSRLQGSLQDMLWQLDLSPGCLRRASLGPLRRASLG

leptin-monomer Ab1, sequence (P41159 other isoform, or with tags, fused parts or gaps): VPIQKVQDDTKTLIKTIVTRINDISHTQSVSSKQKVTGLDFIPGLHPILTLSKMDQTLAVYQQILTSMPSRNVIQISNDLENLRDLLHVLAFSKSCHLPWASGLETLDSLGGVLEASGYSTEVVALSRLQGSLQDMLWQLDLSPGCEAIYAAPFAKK
leptin-dimer Ab1, sequence (P41159 other isoform, or with tags, fused parts or gaps): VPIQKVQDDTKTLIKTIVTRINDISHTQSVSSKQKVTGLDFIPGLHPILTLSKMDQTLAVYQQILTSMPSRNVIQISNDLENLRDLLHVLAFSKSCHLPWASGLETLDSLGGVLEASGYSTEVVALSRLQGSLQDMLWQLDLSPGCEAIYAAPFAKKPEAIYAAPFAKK

| Substance | fluorometric analysis of phosphorylation on protein chip (Cy5-labeled anti-phosphorylation tyrosine antibody) [1] | fluorometric analysis of phosphorylation on protein chip (Cy5-labeled anti-phosphorylation tyrosine antibody) [2] | fluorometric analysis of phosphorylation on protein chip (Cy3-labeled anti-phosphorylation serine antibody) [3] | fluorometric analysis of phosphorylation on protein chip, 10-fold diluted spots [4] |
| --- | --- | --- | --- | --- |
| Ab1 kinase | the Ab1 kinase showed a specific interaction with the Ab1 monomer and dimer fused with leptin | the Ab1 kinase showed a specific interaction with the Ab1 monomer and dimer fused with leptin |  |  |
| protein kinase A |  |  | the protein kinase A showed a specific interaction with the kemptide of a form fused with the leptin or malic enzyme | In a diluted state as shown by 2 and 4, the dimer showed a higher reactivity than the monomer |
